{"source": "patent US20220074947A1", "about": "(UCB, published 2022)", "binders": {"B1": {"name": "CA185_01979 mouse IgG1 (antibody, V domains shown)", "VH": "EVHLVESGPGLVKPSQSLSLTCSVTGYSITNSYWDWIRKFPGNKMEWMGYINYSGSTGYNPSLKSRISISRDTSNNQFFLQLNSITTEDTATYYCARGTYGYNAYHFDYWGRGVMVTVSS", "VL": "DIQMTQSPASLSASLEEIVTITCQASQDIGNWLSWYQQKPGKSPHLLIYGTTSLADGVPSRFSGSRSGTQYSLKISGLQVADIGIYVCLQAYSTPFTFGSGTKLEIKR", "notes": "mIgG1 heavy chain and kappa light chain; also called CA185_01979.0; VR0001842"}}, "key": {"[1]": {"target": "T1, human TNFα in complex with compound (1) (human, UniProt P01375 77-233)", "T1 construct": "also called human TNFα +compound (1); TNFα-compound (1) complex", "T1 sequence (P01375 77-233 limits assumed, one chain of several)": "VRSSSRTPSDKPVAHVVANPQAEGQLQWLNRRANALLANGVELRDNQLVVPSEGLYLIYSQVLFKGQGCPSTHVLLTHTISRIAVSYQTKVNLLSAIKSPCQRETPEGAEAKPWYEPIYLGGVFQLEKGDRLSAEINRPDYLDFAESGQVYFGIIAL", "assay": "SPR (BIAcore), against apo human TNFα"}, "[2]": {"target": "T2, human TNFα in complex with compound (2) (human, UniProt P01375 77-233)", "T2 construct": "also called human TNFα +compound (2); compound-distorted human TNFα", "T2 sequence (P01375 77-233 limits assumed, one chain of several)": "as above", "assay": "SPR (BIAcore), against apo human TNFα"}}}
{"binder": "B1", "values": [{"measurement": "selective binding for compound-distorted over apo human TNFα (log)", "setting": "[1]", "result": "> 2", "unit": "log"}, {"measurement": "selective binding for compound-distorted over apo human TNFα (log)", "setting": "[2]", "result": "> 2", "unit": "log"}]}
